Target: FGFR2b (Homo sapiens, UniProt P21802)
Assay: SPR

B1: bemarituzumab (antibody, V domains shown)
VH: QVQLVQSGAEVKKPGSSVKVSCKASGYIFTTYNVHWVRQAPGQGLEWIGSIYPDNGDTSYNQNFKGRATITADKSTSTAYMELSSLRSEDTAVYYCARGDFAYWGQGTLVTVSS
VL: DIQMTQSPSSLSASVGDRVTITCKASQGVSNDVAWYQQKPGKAPKLLIYSASYRYTGVPSRFSGSGSGTDFTFTISSLQPEDIATYYCQQHSTTPYTFGQGTKLEIKR
  Kd: 0.58 nM

From publication PMC7561547 (2020)
